# Test results published in patent publication US20230272073A1.
# What was measured:
# [1] = target: IGHV3-21/IGLV3-21^G110 BCR on murine TKO cells (human) (UniProt P01871); experiment: flow cytometry dot plot, cell mix B (1:1 IGHV3-21/IGLV3-21^G110 BCR TKO cells and BCR-negative TKO cells), 2 µg/ml anti-human IgM-PE
# [2] = target: membrane-bound IGHV3-21/IGLV3-21^R110 BCR on murine TKO cells (human); experiment: flow cytometry dot plot, cell mix A (1:1 IGHV3-21/IGLV3-21^R110 BCR TKO cells and BCR-negative TKO cells), 2 µg/ml anti-human IgM-PE
# membrane-bound IGHV3-21/IGLV3-21^R110 BCR on murine TKO cells (human), sequence (P01871 other isoform, or with tags, fused parts or gaps, chain 1 of 2): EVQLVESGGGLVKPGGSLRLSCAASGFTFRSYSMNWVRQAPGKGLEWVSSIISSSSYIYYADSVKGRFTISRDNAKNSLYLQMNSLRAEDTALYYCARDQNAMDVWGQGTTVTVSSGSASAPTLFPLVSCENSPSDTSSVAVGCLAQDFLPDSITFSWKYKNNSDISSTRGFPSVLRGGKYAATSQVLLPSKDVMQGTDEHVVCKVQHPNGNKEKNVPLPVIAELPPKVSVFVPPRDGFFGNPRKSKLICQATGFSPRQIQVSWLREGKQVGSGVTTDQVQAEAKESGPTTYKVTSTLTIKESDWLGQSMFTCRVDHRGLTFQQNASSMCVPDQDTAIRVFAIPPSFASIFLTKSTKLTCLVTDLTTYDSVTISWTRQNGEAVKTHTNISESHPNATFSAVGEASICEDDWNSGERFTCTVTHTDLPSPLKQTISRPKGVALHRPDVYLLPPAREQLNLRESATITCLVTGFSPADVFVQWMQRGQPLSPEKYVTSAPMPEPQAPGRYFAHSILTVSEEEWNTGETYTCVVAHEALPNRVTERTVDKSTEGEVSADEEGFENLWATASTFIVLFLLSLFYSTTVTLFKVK
# membrane-bound IGHV3-21/IGLV3-21^R110 BCR on murine TKO cells (human), sequence (light, as listed by the source, chain 2 of 2): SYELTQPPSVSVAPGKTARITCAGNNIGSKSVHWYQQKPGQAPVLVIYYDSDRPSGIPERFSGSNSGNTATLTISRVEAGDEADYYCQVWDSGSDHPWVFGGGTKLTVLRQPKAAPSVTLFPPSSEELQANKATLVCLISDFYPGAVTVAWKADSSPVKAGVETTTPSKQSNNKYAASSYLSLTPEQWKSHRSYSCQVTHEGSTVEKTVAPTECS
# IGHV3-21/IGLV3-21^G110 BCR on murine TKO cells (human), sequence (P01871 other isoform, or with tags, fused parts or gaps, chain 1 of 2): as the sequence (P01871 other isoform, or with tags, fused parts or gaps, chain 1 of 2) above
# IGHV3-21/IGLV3-21^G110 BCR on murine TKO cells (human), sequence (light, as listed by the source, chain 2 of 2): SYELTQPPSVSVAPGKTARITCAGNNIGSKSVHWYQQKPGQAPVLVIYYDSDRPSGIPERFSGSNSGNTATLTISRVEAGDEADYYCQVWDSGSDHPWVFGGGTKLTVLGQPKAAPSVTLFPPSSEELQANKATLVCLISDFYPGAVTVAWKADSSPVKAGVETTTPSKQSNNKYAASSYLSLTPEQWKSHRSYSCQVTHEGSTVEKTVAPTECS
substance,measurement,setting,value
"Anti-human IgM-PE, Clone: MHM-88, BioLegend Cat-No.: 314508 (antibody)","share of gated cells (P1) in quadrant Q1 (anti-IgM-PE positive, mAb01-01-APC negative)",[1],42.2%
same,"share of gated cells (P1) in quadrant Q2 (anti-IgM-PE positive, mAb01-01-APC positive)",[1],1.11%
same,"share of gated cells (P1) in quadrant Q1 (anti-IgM-PE positive, mAb01-01-APC negative)",[2],2.78%
same,"share of gated cells (P1) in quadrant Q2 (anti-IgM-PE positive, mAb01-01-APC positive)",[2],45.5%
